Biological target: the molecule itself
Test: crystal structure

B1: Bacillus subtilis PurR (purine synthesis transcription regulator), untagged (natural protein)
chain: MKFRRSGRLVDLTNYLLTHPHELIPLTFFSERYESAKSSISEDLTIIKQTFEQQGIGTLLTVPGAAGGVKYIPKMKQAEAEEFVQTLGQSLANPERILPGGYVYLTDILGKPSVLSKVGKLFASVFAEREIDVVMTVATKGIPLAYAAASYLNVPVVIVRKDNKVTEGSTVSINYVSGSSNRIQTMSLAKRSMKTGSNVLIIDDFMKAGGTINGMINLLDEFNANVAGIGVLVEAEGVDERLVDEYMSLLTLSTINMKEKSIEIQNGNFLRFFKDNLLKNGETES
Does B1 bind?
Result: binds

From doi:10.1101/2020.12.02.409011 (bioRxiv, 2020)
